From patent EP4574844A1 (Numab Therapeutics AG, dated 2025) come the findings set out here.

The chains are these.
B1: PRO4673 (antibody)
chain 1: DVQMTQSPSSLSASVGDRVTITCQASQSISSWVSWYQQKPGKPPKLLIYRGGYLESGVPSRFSASGSGTDFTLTISSLQPEDFATYYCQSTDSSTYGGAFGCGTKVTVLGGGGGSGGGGSGGGGSGGGGSQQVVESGGGLVQPGGSLRLSCAVSGIDLNSYAMTWVRQAPGKCLEWIGYIGSASSTYYASWASGRFTISKDNSKNTVYLQMNSLRAEDSAVYFCARGSTYINIWGQGTLVKVSSEPKSSDKTHTCPPCPAPELLGGPSVFLFPPKPKDTLMISRTPEVTCVVVDVSHEDPEVKFNWYVDGVEVHNAKTKPREEQYNSTYRVVSVLTVLHQDWLNGKEYKCKVSNKALPAPIEKTISKAKGQPREPQVYTLPPCREEMTKNQVSLSCAVKGFYPSDIAVEWESNGQPENNYKTTPPVLDSDGSFFLVSKLTVDKSRWQQGNVFSCSVMHEALHNHYTQKSLSLSPGKGGGGSGGGGSDIQMTQSPSSLSASVGDRVTITCQSSESVYSNNQLSWYQQKPGQPPKLLIYDASDLASGVPSRFSGSGSGTDFTLTISSLQPEDFATYYCAGGFSSSSDTAFGCGTKLTVLGGGGGSGGGGSGGGGSGGGGSEVQLVESGGGLVQPGGSLRLSCAASGFSLSSNAMGWVRQAPGKCLEYIGIISVGGFTYYASWAKGRFTISRDNSKNTVYLQMNSLRAEDSATYFCARDRHGGDSSGAFYLWGQGTLVKVSS
chain 2: not shown
B2: PRO5054 (antibody)
chain 1: DIQMTQSPSSLSASVGDRVTITCQSSESVYSNNQLSWYQQKPGQPPKLLIYDASDLASGVPSRFSGSGSGTDFTLTISSLQPEDFATYYCAGGFSSSSDTAFGCGTKLTVLGGGGGSGGGGSGGGGSGGGGSEVQLVESGGGLVQPGGSLRLSCAASGFSLSSNAMGWVRQAPGKCLEYIGIISVGGFTYYASWAKGRFTISRDNSKNTVYLQMNSLRAEDSATYFCARDRHGGDSSGAFYLWGQGTLVKVSSEPKSSDKTHTCPPCPAPELLGGPSVFLFPPKPKDTLMISRTPEVTCVVVDVSHEDPEVKFNWYVDGVEVHNAKTKPREEQYNSTYRVVSVLTVLHQDWLNGKEYKCKVSNKALPAPIEKTISKAKGQPREPQVYTLPPCREEMTKNQVSLSCAVKGFYPSDIAVEWESNGQPENNYKTTPPVLDSDGSFFLVSKLTVDKSRWQQGNVFSCSVMHEALHNHYTQKSLSLSPGKGGGGSGGGGSDVQMTQSPSSLSASVGDRVTITCQASQSIGSNLAWYQQKPGKPPKLLIYKGGTLESGVPSRFSGSGSGTDFTLTISSLQPEDFATYYCQSTAGSSRSGNYGYVFGCGTKVTVLGGGGGSGGGGSGGGGSGGGGSQQLVESGGGLVQPGGSLRLSCAASGFSFTNNYYMCWVRQAPGKCLEWIACMLVGAWGNTYYASWANGRFTISKDNSKNTVYLQMNSLRAEDSAVYFCARARDYTWTLGGDPETSGFNLWGQGTLVKVSS
chain 2: not shown
B3: PRO5057 (antibody, human IgG1, kappa)
chain: B2 chain 1
heavy: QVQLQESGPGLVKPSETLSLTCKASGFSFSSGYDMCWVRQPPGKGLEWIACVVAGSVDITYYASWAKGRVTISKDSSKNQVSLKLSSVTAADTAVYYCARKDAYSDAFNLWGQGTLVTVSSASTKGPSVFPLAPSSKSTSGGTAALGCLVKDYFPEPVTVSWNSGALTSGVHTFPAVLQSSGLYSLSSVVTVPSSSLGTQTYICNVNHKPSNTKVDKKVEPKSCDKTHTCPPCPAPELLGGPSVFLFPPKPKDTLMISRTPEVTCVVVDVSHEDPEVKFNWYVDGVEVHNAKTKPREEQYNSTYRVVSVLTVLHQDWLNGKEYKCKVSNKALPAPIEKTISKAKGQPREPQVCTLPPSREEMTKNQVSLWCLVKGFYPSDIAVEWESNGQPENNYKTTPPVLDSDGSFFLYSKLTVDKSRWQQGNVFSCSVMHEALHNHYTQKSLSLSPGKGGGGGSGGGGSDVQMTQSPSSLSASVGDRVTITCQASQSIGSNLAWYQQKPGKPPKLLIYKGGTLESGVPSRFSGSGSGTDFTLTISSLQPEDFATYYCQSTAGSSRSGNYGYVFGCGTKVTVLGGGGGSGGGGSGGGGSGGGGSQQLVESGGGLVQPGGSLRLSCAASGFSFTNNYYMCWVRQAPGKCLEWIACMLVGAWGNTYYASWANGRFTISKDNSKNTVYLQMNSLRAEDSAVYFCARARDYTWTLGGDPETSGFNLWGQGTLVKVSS
light: DIQMTQSPSSLSASVGDRVTITCQASQSINDYLAWYQQKPGKAPKLLIYKGGTLASGVPSRFSGSGSGTDFTLTISSLQPEDFATYYCQQGYIITDIDNVFGQGTKVEIKRTVAAPSVFIFPPSDEQLKSGTASVVCLLNNFYPREAKVQWKVDNALQSGNSQESVTEQDSKDSTYSLSSTLTLSKADYEKHKVYACEVTHQGLSSPVTKSFNRGEC
B4: PRO4682 (antibody, human IgG1, kappa)
chain: QQVVESGGGLVQPGGSLRLSCAVSGIDLNSYAMTWVRQAPGKGLEWIGYIGSASSTYYASWASGRFTISKDNSKNTVYLQMNSLRAEDTAVYFCARGSTYINIWGQGTLVTVSSASTKGPSVFPLAPSSKSTSGGTAALGCLVKDYFPEPVTVSWNSGALTSGVHTFPAVLQSSGLYSLSSVVTVPSSSLGTQTYICNVNHKPSNTKVDKKVEPKSCDKTHTCPPCPAPELLGGPSVFLFPPKPKDTLMISRTPEVTCVVVDVSHEDPEVKFNWYVDGVEVHNAKTKPREEQYNSTYRVVSVLTVLHQDWLNGKEYKCKVSNKALPAPIEKTISKAKGQPREPQVYTLPPCREEMTKNQVSLSCAVKGFYPSDIAVEWESNGQPENNYKTTPPVLDSDGSFFLVSKLTVDKSRWQQGNVFSCSVMHEALHNHYTQKSLSLSPGKGGGGGSGGGGSDVQMTQSPSSLSASVGDRVTITCQASQSIGSNLAWYQQKPGKPPKLLIYKGGTLESGVPSRFSGSGSGTDFTLTISSLQPEDFATYYCQSTAGSSRSGNYGYVFGCGTKVTVLGGGGGSGGGGSGGGGSGGGGSQQLVESGGGLVQPGGSLRLSCAASGFSFTNNYYMCWVRQAPGKCLEWIACMLVGAWGNTYYASWANGRFTISKDNSKNTVYLQMNSLRAEDSAVYFCARARDYTWTLGGDPETSGFNLWGQGTLVKVSS
heavy: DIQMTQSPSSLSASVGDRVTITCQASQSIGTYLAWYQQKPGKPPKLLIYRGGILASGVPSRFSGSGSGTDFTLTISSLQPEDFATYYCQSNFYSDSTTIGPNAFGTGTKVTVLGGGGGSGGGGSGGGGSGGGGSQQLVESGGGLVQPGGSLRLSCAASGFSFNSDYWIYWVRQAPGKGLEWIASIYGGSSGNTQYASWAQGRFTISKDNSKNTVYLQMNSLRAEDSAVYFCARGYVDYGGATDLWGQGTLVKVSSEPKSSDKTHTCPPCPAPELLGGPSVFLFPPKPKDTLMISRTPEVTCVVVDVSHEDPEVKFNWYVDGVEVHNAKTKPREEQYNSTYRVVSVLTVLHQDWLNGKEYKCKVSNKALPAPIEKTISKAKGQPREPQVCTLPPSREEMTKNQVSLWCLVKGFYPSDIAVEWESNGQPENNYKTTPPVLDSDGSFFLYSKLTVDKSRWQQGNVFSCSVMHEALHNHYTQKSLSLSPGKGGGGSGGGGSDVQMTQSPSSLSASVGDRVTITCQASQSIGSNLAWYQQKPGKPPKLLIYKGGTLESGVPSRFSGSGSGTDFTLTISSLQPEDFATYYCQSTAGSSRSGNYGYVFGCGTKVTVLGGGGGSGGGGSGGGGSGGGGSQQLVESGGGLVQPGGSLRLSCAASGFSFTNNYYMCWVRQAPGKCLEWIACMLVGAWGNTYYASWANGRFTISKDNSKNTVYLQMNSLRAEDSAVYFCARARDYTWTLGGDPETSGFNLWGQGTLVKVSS
light: DVQMTQSPSSLSASVGDRVTITCQASQSISSWVSWYQQKPGKPPKLLIYRGGYLESGVPSRFSASGSGTDFTLTISSLQPEDFATYYCQSTDSSTYGGAFGQGTKVEIKRTVAAPSVFIFPPSDEQLKSGTASVVCLLNNFYPREAKVQWKVDNALQSGNSQESVTEQDSKDSTYSLSSTLTLSKADYEKHKVYACEVTHQGLSSPVTKSFNRGEC
B5: PRO4683 (antibody, human IgG1, kappa)
chain: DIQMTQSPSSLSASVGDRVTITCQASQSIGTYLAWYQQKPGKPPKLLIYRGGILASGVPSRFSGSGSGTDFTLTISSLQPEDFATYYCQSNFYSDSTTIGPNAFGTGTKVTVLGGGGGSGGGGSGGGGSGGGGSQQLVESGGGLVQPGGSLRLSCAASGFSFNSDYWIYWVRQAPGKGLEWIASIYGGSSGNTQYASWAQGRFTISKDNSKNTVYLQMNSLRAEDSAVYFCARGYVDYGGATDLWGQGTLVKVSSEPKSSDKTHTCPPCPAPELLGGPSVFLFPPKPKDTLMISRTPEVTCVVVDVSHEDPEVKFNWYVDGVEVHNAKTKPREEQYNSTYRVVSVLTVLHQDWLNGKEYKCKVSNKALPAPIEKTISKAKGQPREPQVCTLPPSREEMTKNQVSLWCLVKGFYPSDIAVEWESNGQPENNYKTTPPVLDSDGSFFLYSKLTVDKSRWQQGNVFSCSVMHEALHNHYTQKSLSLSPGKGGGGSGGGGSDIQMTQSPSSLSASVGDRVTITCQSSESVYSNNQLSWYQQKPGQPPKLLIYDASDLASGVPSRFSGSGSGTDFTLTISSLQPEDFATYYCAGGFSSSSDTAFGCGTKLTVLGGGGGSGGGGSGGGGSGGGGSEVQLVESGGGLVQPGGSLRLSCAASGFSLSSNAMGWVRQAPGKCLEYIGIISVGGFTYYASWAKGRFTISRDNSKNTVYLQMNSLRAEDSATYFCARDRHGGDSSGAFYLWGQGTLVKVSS
heavy: QQVVESGGGLVQPGGSLRLSCAVSGIDLNSYAMTWVRQAPGKGLEWIGYIGSASSTYYASWASGRFTISKDNSKNTVYLQMNSLRAEDTAVYFCARGSTYINIWGQGTLVTVSSASTKGPSVFPLAPSSKSTSGGTAALGCLVKDYFPEPVTVSWNSGALTSGVHTFPAVLQSSGLYSLSSVVTVPSSSLGTQTYICNVNHKPSNTKVDKKVEPKSCDKTHTCPPCPAPELLGGPSVFLFPPKPKDTLMISRTPEVTCVVVDVSHEDPEVKFNWYVDGVEVHNAKTKPREEQYNSTYRVVSVLTVLHQDWLNGKEYKCKVSNKALPAPIEKTISKAKGQPREPQVYTLPPCREEMTKNQVSLSCAVKGFYPSDIAVEWESNGQPENNYKTTPPVLDSDGSFFLVSKLTVDKSRWQQGNVFSCSVMHEALHNHYTQKSLSLSPGKGGGGGSGGGGSDIQMTQSPSSLSASVGDRVTITCQSSESVYSNNQLSWYQQKPGQPPKLLIYDASDLASGVPSRFSGSGSGTDFTLTISSLQPEDFATYYCAGGFSSSSDTAFGCGTKLTVLGGGGGSGGGGSGGGGSGGGGSEVQLVESGGGLVQPGGSLRLSCAASGFSLSSNAMGWVRQAPGKCLEYIGIISVGGFTYYASWAKGRFTISRDNSKNTVYLQMNSLRAEDSATYFCARDRHGGDSSGAFYLWGQGTLVKVSS
light: B4 light
B6: PRO4914 (antibody, human IgG1, kappa)
heavy 1: QQVVESGGGLVQPGGSLRLSCAVSGIDLNSYAMTWVRQAPGKGLEWIGYIGSASSTYYASWASGRFTISKDNSKNTVYLQMNSLRAEDTAVYFCARGSTYINIWGQGTLVTVSSASVAAPSVFIFPPSDEQLKSGTASVVCLLNNFYPREAKVQWKVDNALQSGNSQESVTEQDSKDSTYSLSSTLTLSKADYEKHKVYACEVTHQGLSSPVTKSFNRGECDKTHTCPPCPAPELLGGPSVFLFPPKPKDTLMISRTPEVTCVVVDVSHEDPEVKFNWYVDGVEVHNAKTKPREEQYNSTYRVVSVLTVLHQDWLNGKEYKCKVSNKALPAPIEKTISKAKGQPREPQVYTLPPCREEMTKNQVSLSCAVKGFYPSDIAVEWESNGQPENNYKTTPPVLDSDGSFFLVSKLTVDKSRWQQGNVFSCSVMHEALHNHYTQKSLSLSPGKGGGGSGGGGSDVQMTQSPSSLSASVGDRVTITCQASQSIGSNLAWYQQKPGKPPKLLIYKGGTLESGVPSRFSGSGSGTDFTLTISSLQPEDFATYYCQSTAGSSRSGNYGYVFGCGTKVTVLGGGGGSGGGGSGGGGSGGGGSQQLVESGGGLVQPGGSLRLSCAASGFSFTNNYYMCWVRQAPGKCLEWIACMLVGAWGNTYYASWANGRFTISKDNSKNTVYLQMNSLRAEDSAVYFCARARDYTWTLGGDPETSGFNLWGQGTLVKVSS
heavy 2: not shown
light 1: DVQMTQSPSSLSASVGDRVTITCQASQSISSWVSWYQQKPGKPPKLLIYRGGYLESGVPSRFSASGSGTDFTLTISSLQPEDFATYYCQSTDSSTYGGAFGQGTKVEIKSSASTKGPSVFPLAPSSKSTSGGTAALGCLVKDYFPEPVTVSWNSGALTSGVHTFPAVLQSSGLYSLSSVVTVPSSSLGTQTYICNVNHKPSNTKVDKKVEPKSC
light 2: DIQMTQSPSSLSASVGDRVTITCQASQSIGTYLAWYQQKPGKPPKLLIYRGGILASGVPSRFSGSGSGTDFTLTISSLQPEDFATYYCQSNFYSDSTTIGPNAFGQGTKVEIKRTVAAPSVFIFPPSDEQLKSGTASVVCLLNNFYPREAKVQWKVDNALQSGNSQESVTEQDSKDSTYSLSSTLTLSKADYEKHKVYACEVTHQGLSSPVTKSFNRGEC
B7: PRO3723 (scFv)
scFv: DIQMTQSPASLSASVGDRVTITCQASQSIGTYLAWYQQKPGKPPKLLIYRGGILASGVPSRFSGSGSGTDFTLTISSLQPEDFATYYCQSNFYSDSTTIGPNAFGTGTKVTVLGGGGGSGGGGSGGGGSGGGGSEVQLVESGGGLVQPGGSLRLSCAASGFSFNSDYWIYWVRQAPGKGLEWIACIYGGSSGNTQYASWAQGRFTISRDNSKNTVYLQMNSLRAEDTAVYFCARGYVDYGGATDLWGQGTLVTVSS
notes: anti-PDL1 scFv
B8: PRO3724 (scFv)
scFv: DIQMTQSPSSLSASVGDRVTITCQASQSINDYLAWYQQKPGKAPKLLIYKGGTLASGVPSRFSGSGSGTDFTLTISSLQPEDFATYYCQQGYIITDIDNVFGTGTKVTVLGGGGGSGGGGSGGGGSGGGGSQVQLQESGPGLVKPSETLSLTCKASGFSFSSGYDMCWVRQPPGKGLEWIACVVAGSVDITYYASWAKGRVTISKDSSKNQVSLKLSSVTAADTAVYYCARKDAYSDAFNLWGQGTLVTVSS
notes: anti-PDL1 scFv
B9: PRO5036 (scFv)
scFv: DIQMTQSPSSLSASVGDRVTITCQASQSIGTYLAWYQQKPGKPPKLLIYRGGILASGVPSRFSGSGSGTDFTLTISSLQPEDFATYYCQSNFYSDSTTIGPNAFGTGTKVTVLGGGGGSGGGGSGGGGSGGGGSQQLVESGGGLVQPGGSLRLSCAASGFSFNSDYWIYWVRQAPGKGLEWIASIYGGSSGNTQYASWAQGRFTISKDNSKNTVYLQMNSLRAEDTAVYFCARGYVDYGGATDLWGQGTLVTVSS
notes: anti-PDL1 scFv

The first test has as its target human PD-L1 on the cell surface (human, UniProt Q9NZQ7 19-290). The test is described as follows: cell-based or functional assay.
Regarding B1, the “PD-L1 driven EC50 [nM], phagocytosis of H292 cells” value (shortened to “PD-L1 driven EC50 [nM]”) was found to be 0.18 nM.

As for B2, the “PD-L1 driven EC50 [nM]” value is 0.09 nM.

For B3, the “PD-L1 driven EC50 [nM]” value was 0.13 nM.

For B4, the “PD-L1 driven EC50 [nM]” value was found to be 0.14 nM.

On to B5, for which the “PD-L1 driven EC50 [nM]” value came to 0.19 nM.

In the case of B6, the “PD-L1 driven EC50 [nM]” value came to 0.071 nM.

The target in another test is human CD47 on the cell surface (human, UniProt Q08722 19-323). The test is described as follows: cell-based or functional assay.
With B1, the “CD47 driven EC50 [nM], phagocytosis of H292 cells” value (“CD47 driven EC50 … of H292 cells” for short) was found to be 11 nM.

Turning to B4, the “CD47 driven EC50 … of H292 cells” value amounted to 9.3 nM and the “CD47 driven EC50 [nM], phagocytosis of RBCs” value (“CD47 driven EC50 … of RBCs” for short) amounted to 2.78 nM.

Consider B5, for which the “CD47 driven EC50 … of H292 cells” value stood at 5.33 nM and the “CD47 driven EC50 … of RBCs” value was 2.69 nM.

For B6, the “CD47 driven EC50 … of H292 cells” value was 25.2 nM and the “CD47 driven EC50 … of RBCs” value is 37.4 nM.

The next test addresses T1, recombinant human PDL1 (human, UniProt Q9NZQ7 19-238, limits assumed).
T1 construct: SPR antigen; also called CD274; B7-H1
Put plainly: SPR. A general note: In SPR one partner is held on a chip, and binding of the other changes the refractive index at the surface.
Usually Kd stands for the constant that tells how readily two partners part at equilibrium. A word on the koff: it is the first-order rate constant of dissociation. In general, kon refers to the rate constant with which the complex forms. Take B7: the Kd amounted to 0.0258 nM, the koff came to 7.95e-05 s⁻¹ and the kon was found to be 3.08e+06 M⁻¹ s⁻¹.

Take B8: the Kd was determined as 0.012 nM, the koff was found to be 5.7e-05 s⁻¹ and the kon was 4.7e+06 M⁻¹ s⁻¹.

As for B9, the Kd is 0.034 nM, the koff was 0.00014 s⁻¹ and the kon came to 4e+06 M⁻¹ s⁻¹.
